Biological target: T1, recombinant rat LAMP (limbic system-associated membrane protein) expressed at the surface of CHO cells (CHOL … (rat, UniProt Q62813 29-315, PI (GPI) linkage to the membrane at the processed C-terminus, at or near Asn315)); N-linked glycosylation (apparent 55 kDa))
T1 construct: The C-terminal limit 315 is only 'at or near'; also called LAMP cDNA transfected cells
T1 sequence: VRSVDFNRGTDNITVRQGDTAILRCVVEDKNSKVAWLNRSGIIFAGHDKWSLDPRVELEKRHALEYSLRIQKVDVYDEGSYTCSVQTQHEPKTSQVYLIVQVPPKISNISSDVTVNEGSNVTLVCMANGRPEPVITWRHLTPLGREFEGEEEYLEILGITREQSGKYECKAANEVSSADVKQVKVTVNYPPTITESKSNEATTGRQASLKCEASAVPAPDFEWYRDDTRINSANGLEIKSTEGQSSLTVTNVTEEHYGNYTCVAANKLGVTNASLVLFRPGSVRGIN
Assay: fluorescent beads coated with native LAMP, incubated with CHO cells expressing rat LAMP
Experimental: To test whether CHO_L cells can bind external LAMP, fluorescent synthetic beads of 2 μm diameter, which have reactive sites for covalently linking protein (Covasphere™ beads, Duke Scientific, Palo Alto, Calif.), were coated with native LAMP that had been released from hippocampal membranes with PI-specific phospholipase C. The beads were incubated with the recombinant cells and the extent of binding to the cell surface determined.

- binding result: binds
B1: native rat LAMP from hippocampal membranes (receptor)
chain: VRSVDFNRGTDNITVRQGDTAILRCVVEDKNSKVAWLNRSGIIFAGHDKWSLDPRVELEKRHALEYSLRIQKVDVYDEGSYTCSVQTQHEPKTSQVYLIVQVPPKISNISSDVTVNEGSNVTLVCMANGRPEPVITWRHLTPLGREFEGEEEYLEILGITREQSGKYECKAANEVSSADVKQVKVTVNYPPTITESKSNEATTGRQASLKCEASAVPAPDFEWYRDDTRINSANGLEIKSTEGQSSLTVTNVTEEHYGNYTCVAANKLGVTNASLVLFRPGSVRGIN
modifications: N-linked glycosylation (apparent 64-68 kDa)
notes: The C-terminal limit 315 is only 'at or near'; also called native LAMP; external LAMP

From patent US6423827 (UNIVERSITY OF MEDICINE AND DENTISTRY OF NEW JERSEY, dated 2002)
